This is an account of results in US9464280B1, “Beta-lactamases with improved properties for therapy” (priority 2014, dated 2016).

In brackets after ≈: the same amount, converted by molar mass. Like-named read-outs stand apart in the source and are kept apart here. Bounds are passed on as bounds.

The subject of data set [1] is Escherichia coli ATCC 25922. As to the kind of experiment: microbe, parasite or virus in culture. The format is cell-based. Conditions: for EC50 / EC90: Escherichia coli, ATCC25922, no enzyme; for EC90: Table 17, read-out: Ceftriaxone EC90.
The test system of data set [2] is Escherichia coli ATCC 25922. As to the kind of experiment: Microbroth dilution: EC50 of ampicillin and ceftriaxone in absence and presence of P1A. Conditions: absence of P1A; ceftriaxone 0.13 to 128 μg/mL. The format is cell-based.
The test system of data set [3] is Escherichia coli ATCC 25922. The data set is described as follows: microbe, parasite or virus in culture. The format is cell-based. To be noted: for inhibition by sulbactam: amp/sulbactam data. On the procedure: (§1) Escherichia coli strain 25922 was cultured from glycerol stocks to logarithmic growth in cation adjusted Mueller-Hinton broth at 37° C. in an atmospheric environment and diluted in cation adjusted Mueller-Hinton broth to achieve a starting in well concentration of 5×10^5 CFU/mL. Serial 2-fold dilution of antimicrobial compounds were prepared in cation adjusted Mueller-Hinton broth to achieve final in well concentration of 128 μg/mL to 0.13 μg/mL for ampicillin and 4 μg/mL 4 ng/mL in the absence or presence of serial 10-fold dilutions of P1A, P3A, or P4A β-lactamase standard, 5 pg/mL to 50 ng/mL for ampicillin and […] to 500 ng/mL for ceftriaxone, ceftazidime, meropenem, cefepime, cefazolin, amp/sulbactam, cefoperazone, cefotaxime, and cefuroxime. Antibiotics were either added to the P1A and incubated for 30 min at 37° C. (pre-incubation) prior to addition of bacteria, or added to the plates following the addition of P1A, P3A, P4A, and bacteria (simultaneous). All concentrations and combinations were evaluated in triplicate in a 96-well plate format that contained media only, compound plus media only (colorimetric control), and untreated bacterial controls.
Next, the 90% effective inhibitory concentration (EC90) of ampicillin, ceftriaxone, ceftazidime, meropenem, cefepime, cefazolin, amp/sulbactam, cefoperazone, cefotaxime, and cefuroxime against Escherichia coli was determined in the absence and presence of P1A, P3A, or P4A β-lactamase. For the purposes of these studies, the stated effective concentration was the initial concentration of ampicillin, ceftriaxone, ceftazidime, meropenem, cefepime, cefazolin, amp/sulbactam, cefoperazone, cefotaxime, and cefuroxime added at the beginning of the experiment, and not a concentration measured during the course of the experiment or at the end of the incubation period.
Specifically, the assay was performed by diluting (2-fold steps) the chosen antibiotic across the rows of a 96 well dish. The MIC was determined as the point at which the diluted antibiotic transitions from killing to not killing the bacteria (in this case, an E. coli strain that is sensitive to all antibiotics). P1A, P3A, and P4A were diluted (10 fold steps) down the columns (the β-lactamase concentrations increased down the columns). […] The latter point was used as the cut-off point. […] However, for this assay, the absolute MIC is not the most important parameter. The most relevant readout was the β-lactamase concentration at which the apparent MIC increases to the maximum amount of antibiotic tested.
E coli 29522 was incubated overnight in the presence of serial dilutions of antibiotic and the indicated amounts of β-lactamase protein from cell culture supernatants in a 96 well plate. Bacterial density (OD625) of the cultures was measured and the concentration at which the density was reduced by 90% relative to an untreated bacterial control (EC90) was determined. The assay was performed on two separate days and the data reported as Rep1 and Rep2. NA=not assayed.
E coli 29522 was incubated overnight in the presence of serial dilutions of antibiotic and the indicated amounts of β-lactamase protein from cell culture supernatants in a 96 well plate. Bacterial density (OD625) of the cultures was measured and the concentration at which the density was reduced by 90% relative to an untreated bacterial control (EC90) was determined.

Data set [4] concerns Escherichia coli ATCC 25922. As to the kind of experiment: Microbroth dilution: EC50 of ampicillin and ceftriaxone in absence and presence of P1A. The format is cell-based. To be noted: for EC50: Escherichia coli, ATCC25922, P1A 0, read-out: Ceftriaxone EC50. The method, then: as §1
The 50% effective inhibitory concentration (EC50) of ampicillin and ceftriaxone against Escherichia coli was determined in the absence and presence of P1A β-lactamase. For the purposes of these studies, the stated effective concentration was the initial concentration of ampicillin or ceftriaxone added at the beginning of the experiment, and not a concentration measured during the course of the experiment or at the end of the incubation period.
Antibiotics were either added to the P1A and incubated for 30 min at 37° C. (Pre-incubation) prior to addition of bacteria, or added to the plates following the addition of P1A and bacteria (Simultaneous). All concentrations and combinations were evaluated in triplicate in a 96-well plate format. Following overnight incubation, the 0D625 of the plates was measured in a Spectramax 384 plate reader and the data were imported into a customized Excel spreadsheet for the determination of the 50% effective inhibitory concentration at (EC50) by linear regression analysis. For the purposes of these studies, the stated effective concentration is the initial concentration of ampicillin or ceftriaxone added at the beginning of the experiment, and not a concentration measured during the course of the experiment or at the end of the incubation period.
Antibiotics were either added to the P1A and incubated for 30 min at 37° C. (Pre-incubation) prior to addition of bacteria, or added to the plates following the addition of P1A and bacteria (Simultaneous). All concentrations and combinations were evaluated in triplicate in a 96-well plate format. Following overnight incubation, the OD625 of the plates was measured in a Spectramax 384 plate reader and the data were imported into a customized Excel spreadsheet for the determination of the 50% effective inhibitory concentration (EC50).
Antibiotics were added to the P1A bacteria (Simultaneous). All concentrations and combinations were evaluated in triplicate in a 96-well plate format. Following overnight incubation, the OD625 of the plates was measured in a Spectramax 384 plate reader and the data were imported into a customized Excel spreadsheet for the determination of the 50% effective inhibitory concentration at (EC50) by linear regression analysis.

The conditions of data set [5]: cited from earlier work.
A short description of data set [6]: Preliminary enzymatic activity of P1A mutants from B. subtilis supernatants. The format is biochemical. Conditions: B. subtilis supernatant, one substrate concentration. On the procedure: (§2) β-lactamase activity of the mutants was further characterised from E. coli cell lysates and B. subtilis growth supernatant with ampicillin, cefotaxime, ceftriaxone, cefuroxime, ceftazidime, meropenem and imipenem. The activities were determined using only one substrate concentration of each antibiotic tested. Selection of the antibiotic concentration was done with the antibiotic concentration as high as was practical, [S]>>Km. Based on these preliminary experiments, more accurate kinetic parameters were determined for a couple of mutants from both the site-directed and the random mutagenesis research lines. All the mutant enzymes selected for more detailed study were expressed in the B. subtilis host strain RS303. The cells carrying the mutated proteins were grown in minimal medium over-night after which the cells were harvested and the supernatant was concentrated in 1:10 with Amicon Ultra-4 centrifugal devices, MWCO 10000 (Amicon). Protein concentration in each culture supernatant was estimated from 12% SDS-PAGE (Criterion XT Bis-Tris, BioRad, Calif., USA) using the P1A reference material A18K31 as a standard. Kinetic parameters were measured for cefotaxime, ceftriaxone and cefuroxime for each selected mutant strain. The site-directed mutants were designed to hydrolyze cefotaxime and random mutants were screened with ceftriaxone, which made these antibiotics natural choices for determining kinetic parameters.

A further data set concerns E. coli (ATCC 25922). The data set is described as follows: Microtiter plate antibiotic degradation activity assay. The format is cell-based. The method, then:
P1A and P4A were screened for degradation of ampicillin, ceftriazone, cefotaxime, cefozolin, cefuroxime, cefoperazone, cefepime, and ceftazidime in a microtiter plate activity assay that was designed to mimic the activity of the beta-lactamases in the gut in the presence of high antibiotic concentrations. The assay was performed by mixing 10, 100 or 1000 μg/ml of the indicated antibiotics with P1A or P4A, at concentrations of 10 or 100 ng/ml. Plates were either incubated for one hour at 37° C. after which E. coli (ATCC 25922) was added, or E. coli was added immediately after the addition of the beta-lactamase enzymes. The plates were incubated overnight and the bacterial growth quantified by measuring the absorbance at 625 nm (OD625) in a Spectramax 384 Plus plate reader. The analysis was performed twice for each beta-lactamase and antibiotic. The beta-lactamase activity of the culture supernatants was determined as positive or negative based on the appearance of bacterial growth in the individual wells. An OD625 of 1.0 or greater indicated maximal bacterial growth, therefore complete antibiotic degradation and high beta-lactamase activity.

Data set [7] is described as follows: Kinetic parameters of P1A mutant strains. The format is biochemical. On the procedure: as §2
Where [8] appears, read: concentrated B. subtilis supernatant.
[9] abbreviates: relative values of P1A activities.

On to `CO/N=C(\C(=O)N[C@@H]1C(=O)N2C(C(=O)O)=C(CSc3nc(=O)c(=O)[nH]n3C)CS[C@H]12)c1csc(N)n1` [Ceftriaxone], for which the EC50 in data set [1] (1st value, high test 1 μg/mL, Table 16, read-out: Ceftriazone EC50) is 0.06 mg/L (≈ 0.108 µM); in data set [1] (2nd value, high test 1 μg/mL, Table 16, read-out: Ceftriazone EC50), 0.06 mg/L (≈ 0.108 µM); in data set [1] (Rep 2, Table 15, read-out: Ceftriaxone EC50), 0.02 mg/L (≈ 0.0361 µM); in data set [4] (pre-incubation, Table 12), less than 0.13 mg/L; in data set [4] (pre-incubation, Table 13) it was 0.03 mg/L; in data set [4] (simultaneous, Table 12), less than 0.13 mg/L. In addition, the EC50 in data set [4] (simultaneous, Table 13) stood at 0.02 mg/L; in data set [4] (simultaneous, Table 14 repeat analysis) it was 0.03 mg/L. The 90% effect concentration (EC90) in data set [1] (1st value, high test 1 μg/mL) worked out at 0.03 mg/L (≈ 0.0541 µM); in data set [1] (2nd value, high test 1 μg/mL), 0.03 mg/L (≈ 0.0541 µM). In addition, the “Ceftriaxone EC50” value in data set [1] (no enzyme, Rep 1, Table 15) was found to be 0.008 mg/L. The “ceftriaxone EC99” value in data set [2] was less than 0.13 µg/mL. Besides, the “Ceftriaxone EC90” value in data set [3] (no enzyme, 2nd value, high test 1 μg/mL, Table 17) amounted to 0.06 mg/L.

As for “P1A: Wild type; recombinant Bacillus licheniformis 749/C small exo beta-lactamase (PenP), SEQ ID NO: 1”, the “efficacy in humans with piperacillin/tazobactam” value in data set [5] is “efficacious”. Further, in data set [6], the “AMP = ampicillin enzymatic activity” value was 1.00 multiples of P1A, the “CAZ = ceftazidime enzymatic activity” value is given as 1.00 multiples of P1A, the “CRO = ceftriaxone enzymatic activity” value is on record as 1.00 multiples of P1A and the “CTX = cefotaxime enzymatic activity” value is listed as 1.00 multiples of P1A. Moreover, in data set [6], the “CXM = cefuroxime enzymatic activity” value was 1.00 multiples of P1A. In the data set on E. coli (ATCC 25922) (enzyme 10 or 100 ng/ml, antibiotic 10, 100 or 1000 μg/ml, FIG. 8), the “activity for ceftriaxone, cefotaxime, and ceftazidime” value is “no activity”. Moreover, in data set [7] (setting [8]), the “Cefotaxime Vmax” value was 1.18 nmol/s, the Cefotaxime kcat came out at 16 s⁻¹, the “Ceftriaxone Vmax” value was 2.81 nmol/s and the Ceftriaxone kcat was found to be 25 s⁻¹. In addition, in data set [7] (setting [8]), the “Cefuroxime Vmax” value was found to be 1.25 nmol/s and the Cefuroxime kcat was 23 s⁻¹. For the same molecule, in data set [7] (setting [9]), the “Cefotaxime Vmax” value amounted to 1.00, the Cefotaxime kcat was determined as 1 s⁻¹, the “Ceftriaxone Vmax” value is 1.00 and the Ceftriaxone kcat came out at 1 s⁻¹. Also, in data set [7] (setting [9]), the “Cefuroxime Vmax” value turned out to be 1.00 and the Cefuroxime kcat was determined as 1 s⁻¹. Moreover, in data set [3], the inhibition by sulbactam entry is recorded as “effectively inhibited”. Also, the “more active against ampicillin than ceftriaxone” value in data set [4] (microbiological assay) is 1,000 fold.

B1: IS288: P1A with A232G A237S A238G S240D D276N; SEQ ID NO: 5 (protein)
chain: EMKDDFAKLEEQFDAKLGIFALDTGTNRTVAYRPDERFAFASTIKALTVGVLLQQKSIEDLNQRITTRDDLVNYNPITEKHVDTGMTLKELADASLRYSDNAAQNLILKQIGGPESLKKELRKIGDEVTNPERFEPELNEVNPGETQDTSTARALVTSLRAFALEDKLPSEKRELLIDWMKRNTTGDALIRAGVPDGWEVGDKTGSGDYGTRNDIAIIWPPKGDPVVLAVLSSRDKKDAKYDNKLIAEATKVVMKALNMNGK
B1: the “improvement of activity for ceftazidime” value in data set [1] (data showed activity at 500 ng/ml) was determined as 10 fold. For the same molecule, the “β-lactamase activity in comparison to P1A” value in data set [1] (for ceftriaxone, cefotaxime, ceftazidime, cefazolin, cefoperazone and cefuroxime) is on record as not below 10 fold. The “activity relative to P1A, all antibiotics except ampicillin” value in the data set on E. coli (ATCC 25922) (enzyme 10 or 100 ng/ml, FIG. 8) is given as “imporved activity relative to P1A”. The “cephalosporinase activity boosted relative to P1A” value in the data set with E. coli (ATCC 25922) (modification of five amino acids in P1A) is on record as 10-1000 fold. In addition, the inhibition by sulbactam entry in data set [3] is “effectively inhibited”.
